Results: the supplement of paper PMC7877785
± gives the uncertainty stated by the source.

Experiment: self-splicing fitness, log relative to wild type (ln ratio); higher = more splicing; Tetrahymena group I intron in knt gene, E. coli kanamycin selection, DiMSum; sequences stand for … in CUCUCU…GGAGGGAAAAGUUAUCAGGCAUGCACCUGGUAGCUAGUCUUUAAACCAAUAGAUUGCAUCGGUUUAAAAGGCAAGACCGUCAAAUUGCGGGAAAGGGGUCAACAGCCGUUCAGUACCAAGUCUCAGGGGAAACUUUGAGAUGGCCUUGCAAAGGGUAUGGUAAUAAGCUGACGGACAUGGUCCUAACCACGCAGCCAAGUCCUAAGUCAACAGAUCUUCUGUUGAUAUGGAUGCAGUUCACAGACUAAAUGUCGGUCGGGGAAGAUGUAUUCUUCUCAUAAGAUAUAGUCGGACCUCUCCUUAAUGGGAGCUAGCGGAUGAAGUGAUGCAACACUGGAGCCGCUGGGAACUAAUUUGUAUGCGAAAGUAUAUUGAUUAGUUUUGGAGUACUCGUGGUCG
Method in brief: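 DiMSum derived fitness as the error-weighted combination of fold changes across replicates, kanamycin versus no kanamycin, normalised to wild type. E. coli BL21(DE3) held the library, which randomised all eight P1ex-region intron nucleotides within the knt kanamycin-resistance gene on pET-22b(+). Six replicate transformations grew overnight at 37°C or 30°C on LB agar with or without 25 μg/mL kanamycin, also containing 100 μg/mL carbenicillin, 50 μM IPTG and 0.2% rhamnose, and pooled colonies were amplicon-sequenced on an Illumina HiSeq 2500.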

Row | Sequence | self-splicing fitness (ln) (30 °C) | self-splicing fitness (ln) (37 °C)
1 | GCAAAGCAAUAUUACGUAUA | -1.65 ± 0.19 | -1.48 ± 0.19
2 | UAGAAGCAAUAUUACGCUUC | -2.27 ± 0.18 | -2.81 ± 0.22
3 | UUACAGCAAUAUUACGCCUG | -0.557 ± 0.054 | 0.0548 ± 0.081
4 | CGUAAGCAAUAUUACGGACC | -0.744 ± 0.11 | -0.0128 ± 0.14
5 | UUAGAGCAAUAUUACGCUAU | -2.27 ± 0.23 | -1.75 ± 0.26
6 | AGGGAGCAAUAUUACGUCGU | -4.4 ± 0.46 | -2.46 ± 0.33
7 | AUAAAGCAAUAUUACGACAA | -0.556 ± 0.086 | 0.621 ± 0.12
8 | ACUAAGCAAUAUUACGCAUG | -2.31 ± 0.091 | -0.766 ± 0.091
9 | AACGAGCAAUAUUACGUGGA | -2.62 ± 0.33 | -2.15 ± 0.19
10 | GGAAAGCAAUAUUACGUUGU | -4.15 ± 0.23 | -2.19 ± 0.15
11 | AAGGAGCAAUAUUACGGCUG | -2.21 ± 0.23 | -1.37 ± 0.27
12 | AAACAGCAAUAUUACGAGUG | -2.71 ± 0.075 | -1.8 ± 0.074
13 | AAUGAGCAAUAUUACGCCUG | -3.5 ± 0.2 | -2.85 ± 0.26
14 | UCAGAGCAAUAUUACGGGGU | -3.35 ± 0.23 | -2.88 ± 0.27
15 | CAUGAGCAAUAUUACGUCAC | -3.36 ± 0.36 | –
16 | CCGAAGCAAUAUUACGGGCU | -4.21 ± 0.23 | -2.36 ± 0.2
17 | ACUAAGCAAUAUUACGGGAC | -2.94 ± 0.14 | -0.635 ± 0.12
18 | CACCAGCAAUAUUACGGCAG | -0.179 ± 0.045 | -0.218 ± 0.063
19 | GCACAGCAAUAUUACGGGAC | -1.04 ± 0.068 | -1.35 ± 0.098
20 | UAGAAGCAAUAUUACGUUUA | -1.21 ± 0.11 | -0.575 ± 0.098
21 | GACGAGCAAUAUUACGGAUC | -2.68 ± 0.39 | -1.75 ± 0.44
22 | UUAGAGCAAUAUUACGGGGA | -2.48 ± 0.21 | -1 ± 0.2
23 | GCCGAGCAAUAUUACGGAGC | -2.69 ± 0.44 | –
24 | ACAUAGCAAUAUUACGGUGU | -3.8 ± 0.21 | -3.54 ± 0.3
25 | GAUAAGCAAUAUUACGUUAC | -2.69 ± 0.2 | -2.09 ± 0.35
26 | CUUGAGCAAUAUUACGGAGU | -1.09 ± 0.13 | -1.97 ± 0.28
27 | ACGCAGCAAUAUUACGGUAU | -2.67 ± 0.15 | -1.03 ± 0.12

Row | Sequence | self-splicing fitness (ln) (30 °C) | self-splicing fitness (ln) (37 °C)
28 | ACAUAGCAAUAUUACGACAU | -0.718 ± 0.011 | -0.22 ± 0.032
29 | AUAAAGCAAUAUUACGGAAG | -2.3 ± 0.098 | -0.18 ± 0.11
30 | UACAAGCAAUAUUACGGACC | -2.74 ± 0.14 | -0.499 ± 0.18
31 | CCGUAGCAAUAUUACGGCUU | -3.06 ± 0.35 | -3.06 ± 0.43
32 | AUAAAGCAAUAUUACGCGAU | -2.45 ± 0.15 | -1.36 ± 0.16
33 | GUUAAGCAAUAUUACGAAAA | -1.13 ± 0.27 | -2.1 ± 0.24
34 | UUUAAGCAAUAUUACGAAUC | -2.96 ± 0.28 | -1.04 ± 0.25
35 | UAAAAGCAAUAUUACGGUCU | -1.83 ± 0.076 | -0.678 ± 0.079
36 | UCUAAGCAAUAUUACGUUGA | -1.71 ± 0.089 | -1.29 ± 0.086
37 | CGCAAGCAAUAUUACGUGGU | -3.75 ± 0.17 | -3.22 ± 0.19
38 | CGCGAGCAAUAUUACGUUCC | -3.49 ± 0.32 | –
39 | CUUAAGCAAUAUUACGAUGU | -3.88 ± 0.37 | -0.792 ± 0.21
40 | UAUCAGCAAUAUUACGCGGU | -2.68 ± 0.13 | -2.97 ± 0.27
41 | UGCGAGCAAUAUUACGGAUU | – | -3.08 ± 0.4
42 | AUUGAGCAAUAUUACGCCCU | -2.51 ± 0.24 | -0.951 ± 0.21
43 | AGAGAGCAAUAUUACGAUCA | -1.93 ± 0.16 | -1.44 ± 0.17
44 | CAAUAGCAAUAUUACGGCUA | -2.26 ± 0.22 | -2.1 ± 0.19
45 | UUGAAGCAAUAUUACGUAGC | -3.42 ± 0.28 | -2.53 ± 0.33
46 | CGUCAGCAAUAUUACGUUUU | -3.25 ± 0.098 | -1.55 ± 0.094
47 | ACUGAGCAAUAUUACGUUAG | -3.64 ± 0.2 | -0.75 ± 0.19
48 | GGCGAGCAAUAUUACGGGAG | -3.99 ± 0.34 | -1.33 ± 0.23
49 | UAGCAGCAAUAUUACGCCAU | -4.36 ± 0.3 | -2.32 ± 0.14
50 | AGUGAGCAAUAUUACGCUUA | – | -1.98 ± 0.38
51 | CCUCAGCAAUAUUACGGUUA | -3.34 ± 0.21 | -3.26 ± 0.19
52 | CUACAGCAAUAUUACGUAGA | -4.4 ± 0.21 | -2.56 ± 0.14
53 | UUACAGCAAUAUUACGCGGC | -2.62 ± 0.14 | -2.03 ± 0.18
54 | CGAUAGCAAUAUUACGGAAG | -1.53 ± 0.083 | -0.509 ± 0.11

Row | Sequence | self-splicing fitness (ln) (30 °C) | self-splicing fitness (ln) (37 °C)
55 | UUCUAGCAAUAUUACGCUGG | -4.38 ± 0.46 | –
56 | UAUAAGCAAUAUUACGGACG | 0.119 ± 0.088 | 0.194 ± 0.11
57 | AUCAAGCAAUAUUACGUAUC | -4.11 ± 0.21 | -2.76 ± 0.34
58 | UAGGAGCAAUAUUACGUACA | -2.47 ± 0.22 | -0.906 ± 0.18
59 | GGAUAGCAAUAUUACGAAGC | -2.6 ± 0.48 | –
60 | CGAUAGCAAUAUUACGGAGC | -3.91 ± 0.4 | -1.63 ± 0.3
61 | GCUAAGCAAUAUUACGGUUU | -0.872 ± 0.069 | -0.522 ± 0.095
62 | CUUGAGCAAUAUUACGGGCC | – | -2.81 ± 0.34
63 | UCAUAGCAAUAUUACGGAAC | -4.02 ± 0.47 | –
64 | UUGGAGCAAUAUUACGCGCG | -2.3 ± 0.11 | -0.8 ± 0.1
65 | GGGGAGCAAUAUUACGGAAC | – | -2.95 ± 0.26
66 | GCCAAGCAAUAUUACGUUGA | -2.53 ± 0.065 | -1.39 ± 0.065
67 | CUAAAGCAAUAUUACGCAAG | -1.11 ± 0.089 | -0.574 ± 0.12
68 | UUUUAGCAAUAUUACGUGCA | -2.12 ± 0.17 | -1.11 ± 0.18
69 | UGGCAGCAAUAUUACGGUUG | -1.46 ± 0.07 | -1.04 ± 0.082
70 | GCAAAGCAAUAUUACGGAGC | -3.91 ± 0.34 | -2.07 ± 0.19
71 | AAUAAGCAAUAUUACGCACU | 0.285 ± 0.075 | -0.118 ± 0.082
72 | CCAAAGCAAUAUUACGUGCU | -4.12 ± 0.18 | -2.88 ± 0.18
73 | CCGAAGCAAUAUUACGCUGC | -2.89 ± 0.34 | -2.4 ± 0.45
74 | CGCGAGCAAUAUUACGCGGC | – | -2.4 ± 0.38
75 | CCACAGCAAUAUUACGCCAC | -3.52 ± 0.27 | -2.54 ± 0.27
76 | AUUGAGCAAUAUUACGAUCG | -2.34 ± 0.34 | -1.04 ± 0.19
77 | GUUUAGCAAUAUUACGGGCG | -0.544 ± 0.2 | -1.38 ± 0.21
78 | AGGCAGCAAUAUUACGUAAG | -1.77 ± 0.13 | -0.486 ± 0.17
79 | CUGCAGCAAUAUUACGCAGA | -2.32 ± 0.31 | -2.97 ± 0.38
